The values that follow come from IntAct's records for PubMed 17875931.

For this test, the target named is itf2_human TCF4 (UniProt P15884).
itf2_human TCF4, sequence (P15884 whole entry): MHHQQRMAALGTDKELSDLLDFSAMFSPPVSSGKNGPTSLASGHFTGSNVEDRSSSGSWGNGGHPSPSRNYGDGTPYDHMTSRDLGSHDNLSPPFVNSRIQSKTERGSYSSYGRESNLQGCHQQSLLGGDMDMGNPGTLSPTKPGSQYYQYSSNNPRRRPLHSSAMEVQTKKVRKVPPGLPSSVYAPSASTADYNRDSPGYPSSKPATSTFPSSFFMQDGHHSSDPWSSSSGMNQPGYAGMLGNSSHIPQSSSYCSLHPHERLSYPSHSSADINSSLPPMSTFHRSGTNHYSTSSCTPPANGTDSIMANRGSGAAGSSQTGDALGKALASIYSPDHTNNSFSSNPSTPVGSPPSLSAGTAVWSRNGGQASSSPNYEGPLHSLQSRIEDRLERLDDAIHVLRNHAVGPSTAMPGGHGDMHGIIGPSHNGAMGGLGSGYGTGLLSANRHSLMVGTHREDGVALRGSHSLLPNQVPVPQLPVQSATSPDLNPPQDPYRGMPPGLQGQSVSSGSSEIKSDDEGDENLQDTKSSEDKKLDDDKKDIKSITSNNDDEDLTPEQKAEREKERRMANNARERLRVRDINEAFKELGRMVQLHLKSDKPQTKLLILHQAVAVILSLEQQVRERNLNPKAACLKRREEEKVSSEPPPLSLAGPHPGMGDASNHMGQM

Transcription factor SOX-17 (Mus musculus), Q61473 G103R, sequence (Q61473 whole entry G103R): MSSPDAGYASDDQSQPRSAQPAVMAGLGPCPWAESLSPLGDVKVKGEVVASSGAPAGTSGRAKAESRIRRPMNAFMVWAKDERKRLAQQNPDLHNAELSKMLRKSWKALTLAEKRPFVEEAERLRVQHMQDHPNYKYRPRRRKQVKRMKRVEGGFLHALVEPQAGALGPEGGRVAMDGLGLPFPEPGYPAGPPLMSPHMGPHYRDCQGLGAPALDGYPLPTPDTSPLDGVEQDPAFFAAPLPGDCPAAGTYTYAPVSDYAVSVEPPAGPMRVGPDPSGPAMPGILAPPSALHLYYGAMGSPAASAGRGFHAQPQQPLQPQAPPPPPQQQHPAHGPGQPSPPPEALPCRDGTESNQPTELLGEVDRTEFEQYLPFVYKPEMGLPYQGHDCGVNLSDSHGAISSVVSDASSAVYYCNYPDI

As to “Transcription factor SOX-17 (Mus musculus), Q61473 G103R”, the “effect of a mutation on the interaction” value is “disrupting interaction”.
